Legend:
[1] = target: Bxz2 Int (mycobacteriophage Bxz2 serine-integrase, gene 34) (mycobacteriophage Bxz2); experiment: native gel or EMSA
[2] = target: Bxz2 MBP-Int fusion protein (mycobacteriophage Bxz2); experiment: native gel or EMSA

**Q.** With “Bxz2 Int (mycobacteriophage Bxz2 serine-integrase, gene 34) (enzyme)” as the substance, how does the stoichiometry N [1] read?
**A.** 2

**Q.** With Bxz2 MBP-Int fusion protein (enzyme) as the substance, how does the stoichiometry N [2] read?
**A.** 2

From paper PMC3947336
